Reference: US20230399650
Where a chain is given by its changes, count along the chain named.

How the values were obtained:
[1] = test system: VapBC hetero-octamer, VapB Q12L (VapBL12C, CS14 allele) (Shigella sonnei); experiment: SPR; conditions: 25 C, 50 mM Tris pH 8.0, 150 mM NaCl; traces not at equilibrium; methods state chip duplex SH167 annealed with SH181 (SH181 printed is operator site 2 sequence)
[2] = test system: VapBC hetero-octamer, VapB Q12A (VapBA12C) (Shigella sonnei); experiment: SPR; conditions: 25 C, 50 mM Tris pH 8.0, 150 mM NaCl; approximate
[3] = test system: T1, VapB^Q12 (Shigella sonnei 53G wild-type VapB antitoxin)
T1 sequence: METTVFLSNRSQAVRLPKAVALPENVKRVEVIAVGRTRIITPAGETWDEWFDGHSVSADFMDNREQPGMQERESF

[4] = test system: T2, VapB^A12 (Shigella sonnei VapB, Q12A)
T2 sequence: T1 sequence with Q12A

[5] = test system: T3, VapB^L12 (VapB of Shigella sonnei CS14, Q12L)
T3 sequence: T1 sequence with Q12L

Row | Substance | binding signal (fold lower affinity than VapBQ12C) [1] | binding signal (fold lower affinity than VapBQ12C) [2] | degradation after 4 hours, in the presence of control DNA [3] | degradation after 4 hours, without DNA [3] | degradation of VapB by Lon in the presence of control DNA [3] | degradation of VapB by Lon in the presence of long-chain polyphosphate [3] | degradation of VapB by Lon in the presence of operator DNA [3] | degradation of VapB by Lon, in vitro proteolysis over four hours, SDS-PAGE [3] | degradation of VapB by Lon, in vitro proteolysis with and without ATP, SDS-PAGE [3] | degradation of VapB by Lon in the presence of long-chain polyphosphate [4] | degradation of VapB by Lon in the presence of operator DNA or control DNA [4] | degradation of VapB by Lon, in vitro proteolysis with and without ATP, SDS-PAGE [4] | degradation of VapB by Lon, in vitro proteolysis, SDS-PAGE [4] | degradation of VapB by Lon in the presence of long-chain polyphosphate [5] | degradation of VapB by Lon in the presence of operator DNA or control DNA [5] | degradation of VapB by Lon, in vitro proteolysis over four hours, SDS-PAGE [5] | degradation of VapB by Lon, in vitro proteolysis with and without ATP, SDS-PAGE [5]
1 | ATCATAAACGTATATCCCTTTGACATATCCCG (double strand) [vapBC operator site 1, biotinylated for SPR (SH180 printed)] | 4 | 10 | – | – | – | – | – | – | – | – | – | – | – | – | – | – | –
2 | Shigella Lon protease, hexameric (Lon6) | – | – | 31% vs 55% degradation after 4 hours | 31% vs 55% degradation after 4 hours | significant degradation of VapB^Q12 was observed within two hours | Polyphosphate significantly reduced Lon degradation of VapB^Q12 | virtually no degradation of VapB^Q12 over the course of assays | no significant difference in the degradation of VapB^Q12 and VapB^L12 by Lon protease over the course of assays | VapB degradation by Lon protease is ATP dependent | significantly enhanced Lon degradation of both VapB^L12 and VapB^A12 | neither operator DNA nor control DNA affect Lon degradation of VapB^L12 or VapB^A12 | VapB degradation by Lon protease is ATP dependent | after two hours we observed that VapB^A12 was degraded significantly more than VapB^L12 | significantly enhanced Lon degradation of both VapB^L12 and VapB^A12 | neither operator DNA nor control DNA affect Lon degradation of VapB^L12 or VapB^A12 | no significant difference in the degradation of VapB^Q12 and VapB^L12 by Lon protease over the course of assays | VapB degradation by Lon protease is ATP dependent
